Source: patent publication US20250388666A1 (BRIGHAM AND WOMEN S HOSPITAL, published 2025)
Positions count from the first letter of the chain named. Names and notes keep the numbering of the source. Read-outs that look alike come from different tables or passages of the source.

T1: CEACAM1 (Sino Biological) (human, UniProt P13688 35-428, limits assumed)
T1 construct: may be the same as CEACAM1-HIS; also called hCEACAM1; biotinylated soluble CEACAM1
T1 sequence: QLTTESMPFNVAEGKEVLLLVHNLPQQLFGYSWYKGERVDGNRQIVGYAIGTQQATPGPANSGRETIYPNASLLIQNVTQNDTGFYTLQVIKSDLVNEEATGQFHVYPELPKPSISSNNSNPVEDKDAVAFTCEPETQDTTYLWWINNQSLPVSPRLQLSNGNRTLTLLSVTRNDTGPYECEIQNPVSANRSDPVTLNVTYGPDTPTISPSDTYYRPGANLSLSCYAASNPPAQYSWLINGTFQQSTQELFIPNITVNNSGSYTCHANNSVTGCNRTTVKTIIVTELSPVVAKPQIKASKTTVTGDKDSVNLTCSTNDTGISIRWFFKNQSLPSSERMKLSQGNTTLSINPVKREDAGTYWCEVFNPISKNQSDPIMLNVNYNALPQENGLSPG

T2: CEACAM5 (Sino Biological) (human, UniProt P06731 35-685)
T2 construct: also called hCEACAM5
T2 sequence (looked up): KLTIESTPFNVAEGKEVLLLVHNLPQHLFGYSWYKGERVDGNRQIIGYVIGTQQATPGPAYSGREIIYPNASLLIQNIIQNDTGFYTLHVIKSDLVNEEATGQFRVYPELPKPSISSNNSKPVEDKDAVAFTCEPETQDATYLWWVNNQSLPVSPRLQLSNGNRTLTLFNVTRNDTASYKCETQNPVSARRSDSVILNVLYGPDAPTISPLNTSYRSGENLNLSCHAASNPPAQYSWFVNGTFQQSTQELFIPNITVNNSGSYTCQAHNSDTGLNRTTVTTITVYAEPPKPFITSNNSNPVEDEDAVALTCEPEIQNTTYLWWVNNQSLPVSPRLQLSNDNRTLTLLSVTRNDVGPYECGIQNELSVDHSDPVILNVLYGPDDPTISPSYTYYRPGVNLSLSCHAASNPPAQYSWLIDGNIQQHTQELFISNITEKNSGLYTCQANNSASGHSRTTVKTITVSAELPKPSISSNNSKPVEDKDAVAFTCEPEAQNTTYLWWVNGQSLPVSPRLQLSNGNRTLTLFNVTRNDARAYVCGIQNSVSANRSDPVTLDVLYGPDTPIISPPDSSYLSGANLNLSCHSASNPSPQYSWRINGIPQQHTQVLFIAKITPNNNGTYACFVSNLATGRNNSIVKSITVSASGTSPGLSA

T3: CEACAM3 (Sino Biological) (human, UniProt P40198 35-155, limits assumed)
T3 construct: also called hCEACAM3
T3 sequence (looked up): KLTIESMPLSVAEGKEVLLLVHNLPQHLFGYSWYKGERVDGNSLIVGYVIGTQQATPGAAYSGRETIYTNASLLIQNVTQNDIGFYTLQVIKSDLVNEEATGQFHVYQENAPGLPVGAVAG

T4: CEACAM6 (Sino Biological) (human, UniProt P40199 35-320)
T4 construct: also called hCEACAM6
T4 sequence (looked up): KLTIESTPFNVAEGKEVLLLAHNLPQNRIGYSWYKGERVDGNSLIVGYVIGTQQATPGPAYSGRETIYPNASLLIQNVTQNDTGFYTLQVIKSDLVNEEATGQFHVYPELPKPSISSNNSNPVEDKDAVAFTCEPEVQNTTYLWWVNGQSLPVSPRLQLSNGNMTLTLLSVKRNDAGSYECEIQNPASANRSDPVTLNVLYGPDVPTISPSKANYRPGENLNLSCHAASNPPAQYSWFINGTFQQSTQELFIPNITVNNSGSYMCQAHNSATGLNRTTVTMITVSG

B1: He3/L20 (antibody, IgG4, V domains shown)
VH: EVQLLESGGGLVQPGGSLRLSCAASGFSFSDYYLYWVRQAPGKGLEWVATISVGGGQTSYADSVKGRFTISRDNSKNTLYLQMNSLRAEDTAMYYCTRALTYGPAWLAYWGQGTLVTVSS
VL: DIVMTQSPDSLAVSLGERATINCKSSQSLLNSANQKNYLAWYQQKPGQPPKLLIYFASTRESGVPDRFSGSGSGTDFTLTISSLQAEDVAVYYCQSHFPYPLTFGGGTKVEIK
notes: IgG4 S241P, kappa; also called He3 / 20
B2: Parent VH/L1 (antibody, IgG4, V domains shown)
VH: B1 VH with A99G, T101Y, L107F
VL: B1 VL with F98Y, Y100F, P101Y, L102Y
notes: IgG4 S241P, kappa; also called VHp/L1; VH2 N56Q / 1
B3: He9/L6 (antibody, IgG4, V domains shown)
VH: B1 VH with T97A, L100M, T101Y, L107F
VL: B1 VL with F98Y, Y100F, P101S, L102F
notes: IgG4 S241P, kappa; also called He9 / 6
B4: Parent (scFv)
scFv: EVQLLESGGGLVQPGGSLRLSCAASGFSFSDYYLYWVRQAPGKGLEWVATISVGGGQTSYADSVKGRFTISRDNSKNTLYLQMNSLRAEDTAMYYCTRGLYYGPAWFAYWGQGTLVTVSSGGGGSGGGGSGGGGSDIVMTQSPDSLAVSLGERATINCKSSQSLLNSANQKNYLAWYQQKPGQPPKLLIYFASTRESGVPDRFSGSGSGTDFTLTISSLQAEDVAVYYCQQHYSTPWTFGGGTKVEIK
notes: also called parent humanized scFv; parental RSB02 scFv; not shown: C-terminal Flag tag from phagemid pANT65
B5: parent VH2 N56Q/Vκ4 S27(f)A scFv displayed on phage (scFv)
scFv: B4 scFv
notes: also called parent scFv hyper phage; parent M13 helper phage; not shown: C-terminal Flag tag and gene III fusion

Key:
[1] = molecular target: T1, CEACAM1 (Sino Biological); assay: SPR single-cycle
Procedure, shortened: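 Humanized affinity-matured IgGs from crude supernatants captured on Protein A to ~100 RU, with CEACAM1 analyte injected at 25–100 nM (three-point, two-fold) in HBS-P+ without regeneration. 200 s association per injection, 300 s single dissociation; reference-channel and blank subtracted.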

[2] = molecular target: T2, CEACAM5 (Sino Biological); assay: binding ELISA on plate-coated CEACAM (0.5 µg/mL); antibody at 1.67, 0.062 and 0.0069 µg/mL; signal as % of parent IgG on CEACAM1 at 1.67 µg/mL on the same plate
[3] = molecular target: T3, CEACAM3 (Sino Biological); assay: as above
[4] = molecular target: T4, CEACAM6 (Sino Biological); assay: as above
[5] = molecular target: T1, CEACAM1 (Sino Biological); assay: SPR multi-cycle, IgG on Protein A
[6] = molecular target: T2, CEACAM5 (Sino Biological); assay: binding ELISA on plate-coated CEACAM (0.5 µg/mL); antibody at 1.67, 0.062 and 0.0069 µg/mL; signal as % of parent IgG on CEACAM1 at 1.67 µg/mL on the same plate; remark: listed apart in the source
[7] = molecular target: T3, CEACAM3 (Sino Biological); assay: as above; remark: listed apart in the source
[8] = molecular target: T4, CEACAM6 (Sino Biological); assay: as above; remark: listed apart in the source
[9] = molecular target: T3, CEACAM3 (Sino Biological); assay: as above; remark: listed apart in the source
[10] = molecular target: T1, CEACAM1 (Sino Biological); assay: single-point competition ELISA: crude periplasmic scFv extract mixed 1:1 with VH2 N56Q/Vk4 S27(f)A IgG (0.246 µg/mL) on plate-coated CEACAM1 (0.0625 µg/mL); remaining IgG detected with anti-human-HRP, absorbance 450 nm
Protocol: Nunc Immuno MaxiSorp 96 well flat bottom microtitre plates were coated with CEACAM1 at 0.0625 μg/ml overnight. Plates were subsequently washed and blocked for 1 hour at room temperature with 3% BSA/PBS. Periplasmic extracts were diluted 1:1 with VH2 N56Q/Vk4 S27(f)A IgG (parental RSB02 IgG) at 0.246 μg/mL in 6% BSA/PBS. The diluted periplasmic extract was then added to the blocked plate (100 μL per well) and the samples incubated on the plate for 1 hour at room temperature. Plates were subsequently washed and the binding of VH2 N56Q/Vk4 S27(f)A IgG was detected with an anti-human-HRP antibody (Sigma, Gillingham, UK) and TMB substrate (Invitrogen). The reaction was stopped with 1 M HCl, absorbance read at 450 nm on a Dynex Technologies MRX TC II plate reader and the binding data plotted.
Improved clones were identified on the basis of activity in the competition ELISA relative to the parental RSB02 scFv assayed on the same plate. Greater than 7300 peripreps were analyzed in total from all three libraries. Positive hits were picked into ‘cherry’ plates, re-tested within the competition ELISA to confirm results and sequenced. Dominant single sequence clones were identified in both the VH B1 (˜41% of clones sequenced after round 3 were a single dominant clone) and VL libraries (˜20% of clones were single dominant clones from those sequenced from round 3 and 4).

[11] = molecular target: T1, CEACAM1 (Sino Biological); assay: phage binding assay

| Binder | Kd [1] | fold better than Parent (KD) [1] | binding result [2] | binding result [3] | binding result [4] | Kd [5] | koff [5] | kon [5] | relative KD to Parent [5] | binding result [6] | binding result [7] | binding result [8] | binding result [9] | binding result [10] | binding result [11] |
| --- | --- | --- | --- | --- | --- | --- | --- | --- | --- | --- | --- | --- | --- | --- | --- |
| B1 | 74 nM | 2.15 fold | no binding (tested: 1.67 µg/mL) | no binding (tested: 1.67 µg/mL) | no binding (tested: 1.67 µg/mL) | 25.5 nM | 0.0078 s⁻¹ | 306000 M⁻¹ s⁻¹ | 3.34 ratio |  |  |  |  |  |  |
| B2 | 41 nM | 3.87 fold |  |  |  | 125 nM | 0.00413 s⁻¹ | 33100 M⁻¹ s⁻¹ | 0.68 ratio | no binding (tested: 1.67 µg/mL) | no binding (tested: 1.67 µg/mL) | no binding (tested: 1.67 µg/mL) |  |  |  |
| B3 | 22 nM | 7.1 fold |  |  |  | 39.6 nM | 0.00151 s⁻¹ | 38100 M⁻¹ s⁻¹ | 4.82 ratio |  |  |  | no binding (tested: 1.67 µg/mL) |  |  |
| B4 |  |  |  |  |  |  |  |  |  |  |  |  |  | binds |  |
| B5 |  |  |  |  |  |  |  |  |  |  |  |  |  |  | binds |
